Measured values: PMC8523169

Biological target: full-length MukB (wild type) (E. coli) (UniProt P22523)
Test: fluorescence correlation spectroscopy (FCS); competition: MatP-Cy3B fixed at 1 nM, MukB at 400 nM; ParC variants at 10-fold, unlabeled MatP at 50-fold, DNA at 2.5-fold molar excess

Sequence of MBP-ParC^CTD (ParC C-terminal domain with N-terminal MBP fusion) (domain or fragment) (P0AFI2 whole entry, the tested form may be a part): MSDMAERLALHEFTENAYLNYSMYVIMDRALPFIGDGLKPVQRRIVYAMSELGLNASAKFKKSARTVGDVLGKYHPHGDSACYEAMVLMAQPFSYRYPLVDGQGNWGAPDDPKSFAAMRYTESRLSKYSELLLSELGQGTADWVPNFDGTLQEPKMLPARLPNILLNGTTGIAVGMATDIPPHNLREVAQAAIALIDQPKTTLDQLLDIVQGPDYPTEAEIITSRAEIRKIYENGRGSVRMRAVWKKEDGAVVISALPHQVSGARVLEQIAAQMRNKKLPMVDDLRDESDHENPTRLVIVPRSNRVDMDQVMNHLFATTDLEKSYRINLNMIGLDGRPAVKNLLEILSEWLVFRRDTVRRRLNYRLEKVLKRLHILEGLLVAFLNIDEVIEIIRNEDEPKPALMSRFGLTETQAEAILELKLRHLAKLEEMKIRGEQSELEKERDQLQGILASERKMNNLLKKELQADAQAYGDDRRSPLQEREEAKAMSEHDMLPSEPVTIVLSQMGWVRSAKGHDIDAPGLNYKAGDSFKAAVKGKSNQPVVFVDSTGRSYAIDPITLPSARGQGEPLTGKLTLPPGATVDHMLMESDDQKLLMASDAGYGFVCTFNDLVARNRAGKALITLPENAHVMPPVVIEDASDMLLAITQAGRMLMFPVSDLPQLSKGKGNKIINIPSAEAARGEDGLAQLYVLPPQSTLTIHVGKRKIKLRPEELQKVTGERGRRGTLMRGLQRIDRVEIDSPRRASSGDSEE
Sequence of full-length MukB (wild type) (E. coli) (P22523 whole entry): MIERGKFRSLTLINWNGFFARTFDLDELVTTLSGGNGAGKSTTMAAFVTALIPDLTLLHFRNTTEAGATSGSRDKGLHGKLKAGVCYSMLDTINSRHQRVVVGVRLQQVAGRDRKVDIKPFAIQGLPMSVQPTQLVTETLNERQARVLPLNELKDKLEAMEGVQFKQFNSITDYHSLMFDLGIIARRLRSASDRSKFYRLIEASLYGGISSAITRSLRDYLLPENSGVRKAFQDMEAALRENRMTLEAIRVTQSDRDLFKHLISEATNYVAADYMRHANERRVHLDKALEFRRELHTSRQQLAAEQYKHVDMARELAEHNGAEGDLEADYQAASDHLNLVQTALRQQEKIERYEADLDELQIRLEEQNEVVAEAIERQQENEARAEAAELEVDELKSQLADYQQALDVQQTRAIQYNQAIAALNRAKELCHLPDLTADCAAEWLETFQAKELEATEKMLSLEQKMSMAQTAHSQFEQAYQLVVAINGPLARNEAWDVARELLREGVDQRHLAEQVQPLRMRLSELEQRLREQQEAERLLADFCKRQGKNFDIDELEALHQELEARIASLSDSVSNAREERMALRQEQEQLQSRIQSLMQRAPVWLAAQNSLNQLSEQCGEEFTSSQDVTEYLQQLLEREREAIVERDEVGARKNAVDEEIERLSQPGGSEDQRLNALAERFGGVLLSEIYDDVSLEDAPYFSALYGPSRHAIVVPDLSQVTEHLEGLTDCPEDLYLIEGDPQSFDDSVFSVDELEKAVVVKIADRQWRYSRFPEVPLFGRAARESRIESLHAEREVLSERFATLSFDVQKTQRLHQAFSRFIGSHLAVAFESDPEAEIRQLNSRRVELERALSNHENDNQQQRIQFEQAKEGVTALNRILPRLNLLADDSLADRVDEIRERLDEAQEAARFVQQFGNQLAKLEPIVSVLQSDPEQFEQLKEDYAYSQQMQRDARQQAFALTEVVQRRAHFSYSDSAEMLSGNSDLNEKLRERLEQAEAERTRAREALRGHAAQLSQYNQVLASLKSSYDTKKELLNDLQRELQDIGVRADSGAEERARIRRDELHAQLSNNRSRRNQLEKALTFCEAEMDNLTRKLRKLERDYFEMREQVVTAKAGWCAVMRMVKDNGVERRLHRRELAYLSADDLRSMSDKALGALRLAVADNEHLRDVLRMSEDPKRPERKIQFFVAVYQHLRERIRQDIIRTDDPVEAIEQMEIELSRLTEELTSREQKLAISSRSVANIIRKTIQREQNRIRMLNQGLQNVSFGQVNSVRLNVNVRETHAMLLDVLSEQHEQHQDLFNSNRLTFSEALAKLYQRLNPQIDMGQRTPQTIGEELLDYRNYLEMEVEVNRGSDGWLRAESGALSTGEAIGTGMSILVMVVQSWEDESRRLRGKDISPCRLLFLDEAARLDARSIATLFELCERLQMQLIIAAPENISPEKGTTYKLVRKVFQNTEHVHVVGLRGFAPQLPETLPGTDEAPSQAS

MBP-ParC^CTD (ParC C-terminal domain with N-terminal MBP fusion) (domain or fragment)
fold decrease in MatP-Cy3B binding to MukB at 10-fold excess of competitor: 3 fold
